One series addresses T1, BTK (Homo sapiens, UniProt Q06187).
T1 construct: endogenous in cells; host or cells: TMD8 tumour xenografts in SCID/BEIGE mice
Nature of the series: PK/PD in TMD8 tumor-bearing mice: BTK levels in tumor by Meso Scale Discovery. Format: in vivo, mouse. Conditions: for Duration of BTK degradation in mouse ≥90%: I.v. As for the experimental part: (§1) All animal experiments were performed according to procedures covered by permit number BS-1974, BS-1975 and BS-2904 issued by the Kantonales Veterinäramt Basel-Stadt and strictly adhered to the Eidgenössisches Tierschutzgesetz and the Eidgenössische Tierschutzverordnung. Female Sprague Dawley rat were obtained from Charles Rivers (Germany), female Balb/c mice from Charles Rivers (Italy) and female SCID/BEIGE (C.B-Igh-1b/GbmsTac-Prkdcscid-Lystbg N7) mice from Taconic. All the animals were housed in a pathogen-controlled environment with access to food and water ad libitum and they were identified with transponders.
(§2) Subcutaneous TMD8 tumors were induced by injecting tumor cells expanded in vitro in the right flank of SCID/BEIGE mice. As soon as the injection was finished, antagonization (naloxone, flumazenil and atipamezole injected s.c.) was injected and mice are put on a warming pad for recovery and carefully checked during that time.
(§3) For PK experiments, non-tumor bearing mice or rats were treated once (10 mL/kg) with a compound either i.v. or s.c. Serial blood samplings from the tail vein (5-20 μl) were collected during the course of the experiment. For PK/PD experiments in tumor-bearing mice, compound was administered once (10 mL/kg) either i.v. or s.c. Animals were randomized into groups of n=3 and tissue samples were collected at several time points. At the times indicated, animals were anaesthetized by exposure to 2-3% v/v isoflurane in medical oxygen. They were sacrificed without recovering from anesthetic after blood sampling into commercially prepared EDTA coated tubes (Milian, cat #TOM-14C) in order to extract plasma. The tissues were excised, weighted and rapidly frozen in liquid nitrogen. Later, tumors were cryogenic dry pulverized with the CryoPrep™ system (model CP-02, Covaris). For efficacy experiments in ectopic tumor-bearing mice, animals were randomized into groups of n=6 for a mean tumor size of 100 mm^3 and compound was administered either i.v. q3w or s.c. q2w. When implanted in brain, animals were randomized into groups of n=4 for a mean bioluminescence of 1.0-2.0E+06 [p/s]/[ρW/cm^2] and compound was administered i.v. qw. Tumor response were reported with the measures of tumor volumes or bioluminescence from the treatment start. Concentrations of compound in blood and tissues were determined simultaneously by UPLC/MS-MS. BTK and IL-10 levels in tumor were determined by Meso Scale Discovery (MSD).

The nature of series [1]: In vivo pharmacokinetic study in Cynomolgus monkeys (i.v. or s.c.), FAC and payload in blood. On the set-up: species or system cynomolgus monkey. As for the experimental part:
(§4) Pharmacokinetic studies were conducted in male C57/B16 mice; male Sprague-Dawley rats; male Beagle dogs and male Cynomolgus monkeys. 3 animals per group were used for each study performed. All studies were performed in accordance with local animal welfare regulations.
(§5) Between 1 and 10 µM/kg FAC was administered either intravenously or subcutaneously as a solution in 10 mM PBS with NaOH (dose volume 0.4 mL/kg in dog and monkey s.c. and 0.2 mL/kg i.v. in monkey). Serial 100 µL blood samples were collected via venipuncture of the cephalic vein at defined timepoints to 336 hours (into EDTA coated tubes).
(§6) Each blood sample was precipitated with acetonitrile containing internal standard; samples were mixed and centrifuged (20 minutes 4000 RPM at 4° C.). Supernatant was transferred to a microwell plate and evaporated under nitrogen at 60° C. Residue was resuspended in acetonitrile/water (7:3 v/v); plate sealed and transferred to an ultrasonic bath for 3 minutes, prior to analysis. Quantification was performed by LC-MS/MS (SciexAP16500 Q-trap, Shimadzu Nexera X2) using a Phenomenex Polar RP analytical column (2.5 μm particle size; 50×2 mm). The mobile phase consisted of solvent A (0.1% formic acid in water) and solvent B (0.1% formic acid in acetonitrile). The fatty acid conjugate and API were detected using multiple reaction monitoring.
(§7) Data analysis and calculation of non-compartmental pharmacokinetic parameters was
(§8) performed using an in-house analysis. Following intravenous administration whole blood clearance was calculated by the dose administered divided by AUC0-inf. Volume of distribution at steady state was calculated as MRT*CL, where MRT is the mean residence time, calculated by AUMC0-inf/AUC0-inf. The half-life (t1/2) of the terminal elimination phase was calculated by 0.693/λ. For both intravenous and subcutaneous administration, the systemic exposures were determined by calculating the area under the blood concentration time curve (AUC) from time zero to the last observed quantifiable concentration (AUClast) by using the linear trapezoidal method and normalised to dose. Extrapolated AUC (AUC0-inf) is calculated by addition of AUClast and AUCtlast-inf; where AUCtlast-inf is calculated based on Clast/λ. The slope of the terminal elimination phase was estimated by linear regression of the terminal data points (minimum 3 points) from a natural log concentration versus time plot of the data. Bioavailability was calculated as the dose normalized ratio of […] AUCinf to intravenous AUCinf (100*[SC AUCinf/SC dose]/[IV AUCinf/IV dose]). Following subcutaneous administration Cmax is calculated as the average maximum observed peak concentration and Tmax is the time associated with the determined Cmax.

The nature of series [2]: In vivo pharmacokinetic study in rats (i.v. or s.c.), FAC and payload in blood. On the set-up: species or system rat. Particulars: male, Sprague-Dawley, rat, in vivo, sc, 40 umol/kg. As for the experimental part: as §4
(§9) […] Serial 30 µL blood samples were collected via venipuncture of the tail vein in mouse, and via the cannulated jugular vein in rats at defined timepoints to 216 hours (into EDTA coated tubes).
as §6, §7, §8
as §3, with “Concentrations of compound in blood and tissues were determined simultaneously by UPLC/MS-MS. BTK and IL-10 levels in tumor were determined by Meso Scale Discovery (MSD).” left out

The nature of series [3]: In vivo pharmacokinetic study in mice (i.v. or s.c.), FAC and payload in blood. Also noted: species or system mouse. Conditions: male. How it is done: as §4, §9, §6, §7, §8
as §3, with “Concentrations of compound in blood and tissues were determined simultaneously by UPLC/MS-MS. BTK and IL-10 levels in tumor were determined by Meso Scale Discovery (MSD).” left out

In a further series the test system is TMD8 tumors. Nature of the series: Efficacy in ectopic (subcutaneous) TMD8 tumor-bearing SCID/BEIGE mice, tumor volume. Format: in vivo, mouse. Conditions: I.v. How it is done: as §1, §2, §3
Series [4] is described as follows: In vivo pharmacokinetic study in Beagle dogs (i.v. or s.c.), FAC and payload in blood. Also noted: species or system dog. How it is done:
as §4, §5, §6, §7, §8

Setting [5] is: C57/B16, mouse, in vivo, sc, 40 umol/kg.

Structures are written as SMILES.

We go through two compounds from US20240216513A1, “FATTY ACID-BIFUNCTIONAL DEGRADER CONJUGATES AND THEIR METHODS OF USE” (Novartis AG, priority 2021, published 2024).

What is called AUC is concentration integrated over time. Broadly, the Cmax is the maximum level reached in the sampled fluid or tissue.

T1 sequence (Q06187 whole entry): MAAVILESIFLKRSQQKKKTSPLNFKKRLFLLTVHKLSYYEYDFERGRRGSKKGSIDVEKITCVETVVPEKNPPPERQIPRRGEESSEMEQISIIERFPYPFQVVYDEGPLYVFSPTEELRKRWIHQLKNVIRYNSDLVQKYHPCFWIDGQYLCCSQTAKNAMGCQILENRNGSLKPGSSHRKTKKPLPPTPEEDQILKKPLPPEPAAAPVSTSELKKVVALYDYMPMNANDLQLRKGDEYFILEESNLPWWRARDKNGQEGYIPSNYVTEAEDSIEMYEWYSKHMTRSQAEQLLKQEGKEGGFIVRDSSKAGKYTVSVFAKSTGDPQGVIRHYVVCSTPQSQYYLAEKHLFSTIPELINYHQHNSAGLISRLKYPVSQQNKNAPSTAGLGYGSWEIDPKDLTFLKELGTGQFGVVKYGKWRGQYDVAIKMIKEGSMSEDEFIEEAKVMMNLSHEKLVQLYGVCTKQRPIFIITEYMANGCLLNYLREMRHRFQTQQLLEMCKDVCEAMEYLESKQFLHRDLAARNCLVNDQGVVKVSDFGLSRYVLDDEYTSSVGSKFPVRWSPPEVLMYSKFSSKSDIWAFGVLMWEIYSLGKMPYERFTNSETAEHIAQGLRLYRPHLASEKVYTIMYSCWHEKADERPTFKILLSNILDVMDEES

`CCCCCCCCCCCC(CCCCCCCCCCC(=O)O)(C(=O)O)C(=O)NCCOCCOCCOCCOCCOCCOCCOCCOCCOCCOCCOCCOCCC(=O)NCC(=O)OC(C)(C)c1ccc(C(=O)Nc2cc(F)cc(-c3ncnc4[nH]c(-c5ccc(CN6CCC(OC7CCN(CCn8cccc(CN9CCC(=O)NC9=O)c8=O)CC7)CC6)cc5)cc34)c2C)c(F)c1` (centres unmarked) [Compound B1, 2-((44-(4-((3-(6-(4-((4-((1-(2-(3-((2,4-Dioxotetrahydropyrimidin-1(2H)-yl)methyl)-2-oxopyridin-1(2H)-yl)ethyl)piperidin-4-yl)oxy)piperidin-1-yl)methyl)phenyl)-7H-pyrrolo[2,3-d]pyrimidin-4-yl)-5-fluoro-2-methylphenyl)carbamoyl)-3-fluorophenyl)-44-methyl-39,42-dioxo-3,6,9,12,15,18,21,24,27,30,33,36,43-tridecaoxa-40-azapentatetracontyl)carbamoyl)-2-undecyltridecanedioic acid]: on BTK (40 umol/kg), the “Duration of BTK degradation in mouse ≥90%” value was 10 days. Moreover, in series [1] (analyte conjugate, d.n., Conj. i.v. dose 1 umol/kg), the “Fatty Acid Conjugate C0-uM d.n. Cyno” value amounted to 9.9 µM. In addition, the AUC in series [1] (male, cynomolgus monkey, whole blood, sc, Cyno, Conj. s.c. dose 1 umol/kg, read-out: Lipophilic Acid Conjugate AUC) turned out to be 26.1 µM·h; in series [2] (Lipophilic Acid Conjugate AUC) it was 667 µM·h; in series [3] (setting [5]), 3860 µM·h; in series [4] (male, Beagle, whole blood, sc, Dog, Conj. s.c. dose 10 umol/kg, read-out: Lipophilic Acid Conjugate AUC), 304 µM·h. Moreover, the Cmax amounted to 3.8 µM in series [1] (male, cynomolgus monkey, whole blood, sc, Cyno, Conj. s.c. dose 1 umol/kg, read-out: Lipophilic Acid Conjugate Cmax); 11 µM in series [2]; 71 µM in series [3] (setting [5]); 37.5 µM in series [4] (male, Beagle, whole blood, sc, Dog, Conj. s.c. dose 10 umol/kg, read-out: Lipophilic Acid Conjugate Cmax). Moreover, the “Dosing to achieve sustained ~90% regression” value with TMD8 tumors was 40 umol/kg q3w. Besides, the “Fatty Acid Conjugate C0-uM d.n. Dog” value in series [4] (analyte conjugate, d.n., Conj. i.v. dose 10 umol/kg) worked out at 3.3 µM.

Consider `Cc1c(NC(=O)c2ccc(C(C)(C)O)cc2F)cc(F)cc1-c1ncnc2[nH]c(-c3ccc(CN4CCC(OC5CCN(CCn6cccc(CN7CCC(=O)NC7=O)c6=O)CC5)CC4)cc3)cc12` [Compound N, N-(3-(6-(4-((4-((1-(2-(3-((2,4-Dioxotetrahydropyrimidin-1(2H)-yl)methyl)-2-oxopyridin-1(2H)-yl)ethyl)piperidin-4-yl)oxy)piperidin-1-yl)methyl)phenyl)-7H-pyrrolo[2,3-d]pyrimidin-4-yl)-5-fluoro-2-methylphenyl)-2-fluoro-4-(2-hydroxypropan-2-yl)benzamide], for which the “Duration of BTK degradation in mouse ≥90%” value on BTK (20 mg/kg (unconjugated N)) was determined as 4 days. Further, the “Duration of BTK degradation in mouse ≥90% (days)” value at BTK (s.c., 10 mg/kg (unconjugated N)) is listed as 1(10 mg/kg) days. Further, the AUC in series [3] (C57/B16, whole blood, iv, Mouse, unconj. BTK Degrader dosed itself (i.v. per row label), API dose 10 umol/kg, read-out: Payload (BTK Degrader) AUC) was found to be 9.3 µM·h. Moreover, the maximum concentration (Cmax) in series [3] (C57/B16, whole blood, iv, Mouse, unconj. BTK Degrader dosed itself (i.v. per row label), API dose 10 umol/kg, read-out: Payload (BTK Degrader) Cmax) was found to be 1.6 µM. For the same compound, in the series on TMD8 tumors, the “Dosing to achieve sustained ~90% regression” value amounted to 20 mg/kg 2qw.
